{
  "source": "patent US20090136936A1",
  "about": "(RESEARCH DEVELOPMENT FOUNDATION, published 2009)",
  "binders": {"B1": {"name": "Recombinant human FcγRI/CD64, extracellular domain, glycosylated (receptor, UniProt P12314 16-292, looked up)", "chain": "QVDTTKAVITLQPPWVSVFQEETVTLHCEVLHLPGSSSTQWFLNGTATQTSTPSYRITSASVNDSGEYRCQRGLSGRSDPIQLEIHRGWLLLQVSSRVFTEGEPLALRCHAWKDKLVYNVLYYRNGKAFKFFHWNSNLTILKTNISHNGTYHCSGMGKHRYTSAGISVTVKELFPAPVLNASVTSPLLEGNLVTLSCETKLLLQRPGLQLYFSFYMGSKTLRGRNTSSEYQILTARREDSGLYWCEAATEDGNVLKRSPELELQVLGLQLPTPVWFH", "notes": "extracellular domain; also called FcγRIa; FcγRIa-FITC"}, "B2": {"name": "dsbA-FcγRIIa-His (receptor, Homo sapiens, UniProt P12318 34-217, looked up)", "receptor chain": "QAAAPPKAVLKLEPPWINVLQEDSVTLTCQGARSPESDSIQWFHNGNLIPTHTQPSYRFKANNNDSGEYTCQTGQTSLSDPVHLTVLSEWLVLQTPHLEFQEGETIMLRCHSWKDKPLVKVTFFQNGKSQKFSHLDPTFSIPQANHSHSGDYHCTGNIGYTLFSSKPVTITVQVPSMGSSSPMG", "notes": "soluble mature form, exported to the E. coli periplasm by the dsbA signal; also called product of pTrcdsbAHis-FcγRIIa"}, "B3": {"name": "Fc12 (N361D, E382V, M428I), aglycosylated Fc mutant (other)", "chain": "DKTHTCPPCPAPELLGGPSVFLFPPKPKDTLMISRTPEVTCVVVDVSHEDPEVKFNWYVDGVEVHNAKTKPREEQYNSTYRVVSVLTVLHQDWLNGKEYKCKVSNKALPAPIEKTISKAKGQPREPQVYTLPPSRDELTKDQVSLTCLVKGFYPSDIAVEWVSNGQPENNYKTTPPVLDSDGSFFLYSKLTVDKSRWQQGNVFSCSVIHEALHNHYTQKSLSLSPGK"}, "B4": {"name": "Fc102 (other)", "Fc chain": "B3 chain"}, "B5": {"name": "Fc147 (other)", "Fc chain": "B3 chain with C9R, D141N"}, "B6": {"name": "Fc152 (H224R, E382V, S426T, M428S, E430P), aglycosylated Fc mutant (other)", "chain": "B3 chain with H4R, D141N, S206T, I208S, E210P"}, "B7": {"name": "Fc23 (H310Y, K322R, T350A, E382V, S426T, S442P), aglycosylated Fc mutant (other)", "chain": "B3 chain with H90Y, K102R, T130A, D141N, S206T, I208M, S222P"}, "B8": {"name": "Fc149 (E380D, E382V, N384R, S426V, M428L, E430D), aglycosylated Fc mutant (other)", "chain": "B3 chain with D141N, E160D, N164R, S206V, I208L, E210D"}, "B9": {"name": "Fc106 (E382T, N384D, M428I), aglycosylated Fc mutant (other)", "chain": "B3 chain with D141N, V162T, N164D"}, "B10": {"name": "Fc49 (C229R, E382V, M428I), aglycosylated Fc mutant (other)", "chain": "B3 chain with C9R, D141N", "notes": "also called aglycosylated-Fc49"}, "B11": {"name": "Fc114 (N361S, E382V, M428I), aglycosylated Fc mutant (other)", "chain": "B3 chain with D141S"}, "B12": {"name": "Fc151 (E382V, S426I, M428L, E430S), aglycosylated Fc mutant (other)", "chain": "B3 chain with D141N, S206I, I208L, E210S"}, "B13": {"name": "Fc20 (N361D, F372L, E382V, M428I), aglycosylated Fc mutant (other)", "chain": "B3 chain with F152L"}, "B14": {"name": "Fc100 (other)", "Fc chain": "B3 chain with D141N, E160T, V162M, N164E, I208M"}, "B15": {"name": "Fc143 (P238S, E382V, S426V, M428L, E430H), aglycosylated Fc mutant (other)", "chain": "B3 chain with P18S, D141N, S206V, I208L, E210H"}, "B16": {"name": "Fc217 (LGDGSPCKAN insertion between N297 and S298), aglycosylated Fc mutant (other)", "chain": "DKTHTCPPCPAPELLGGPSVFLFPPKPKDTLMISRTPEVTCVVVDVSHEDPEVKFNWYVDGVEVHNAKTKPREEQYNLGDGSPCKANSTYRVVSVLTVLHQDWLNGKEYKCKVSNKALPAPIEKTISKAKGQPREPQVYTLPPSRDELTKNQVSLTCLVKGFYPSDIAVEWESNGQPENNYKTTPPVLDSDGSFFLYSKLTVDKSRWQQGNVFSCSVMHEALHNHYTQKSLSLSPGK"}, "B17": {"name": "Fc209 (F241L, K326E, EVPLVWMWVS insertion between N297 and S298), aglycosylated Fc mutant (other)", "chain": "DKTHTCPPCPAPELLGGPSVLLFPPKPKDTLMISRTPEVTCVVVDVSHEDPEVKFNWYVDGVEVHNAKTKPREEQYNEVPLVWMWVSSTYRVVSVLTVLHQDWLNGKEYKCKVSNEALPAPIEKTISKAKGQPREPQVYTLPPSRDELTKNQVSLTCLVKGFYPSDIAVEWESNGQPENNYKTTPPVLDSDGSFFLYSKLTVDKSRWQQGNVFSCSVMHEALHNHYTQKSLSLSPGK"}, "B18": {"name": "Fc207 (QLISHYRHLT insertion between N297 and S298), aglycosylated Fc mutant (other)", "chain": "B16 chain with L78Q, G79L, D80I, G81S, S82H, P83Y, C84R, K85H, A86L, N87T"}, "B19": {"name": "Fc216 (WQVFNKYTKP insertion between N297 and S298), aglycosylated Fc mutant (other)", "chain": "B16 chain with L78W, G79Q, D80V, G81F, S82N, P83K, C84Y, K85T, A86K, N87P"}},
  "key": {"[1]": {"target": "T1, BSA (Bos taurus, UniProt P02769)", "T1 construct": "also called BSA coated", "T1 sequence (P02769 25-607 limits assumed)": "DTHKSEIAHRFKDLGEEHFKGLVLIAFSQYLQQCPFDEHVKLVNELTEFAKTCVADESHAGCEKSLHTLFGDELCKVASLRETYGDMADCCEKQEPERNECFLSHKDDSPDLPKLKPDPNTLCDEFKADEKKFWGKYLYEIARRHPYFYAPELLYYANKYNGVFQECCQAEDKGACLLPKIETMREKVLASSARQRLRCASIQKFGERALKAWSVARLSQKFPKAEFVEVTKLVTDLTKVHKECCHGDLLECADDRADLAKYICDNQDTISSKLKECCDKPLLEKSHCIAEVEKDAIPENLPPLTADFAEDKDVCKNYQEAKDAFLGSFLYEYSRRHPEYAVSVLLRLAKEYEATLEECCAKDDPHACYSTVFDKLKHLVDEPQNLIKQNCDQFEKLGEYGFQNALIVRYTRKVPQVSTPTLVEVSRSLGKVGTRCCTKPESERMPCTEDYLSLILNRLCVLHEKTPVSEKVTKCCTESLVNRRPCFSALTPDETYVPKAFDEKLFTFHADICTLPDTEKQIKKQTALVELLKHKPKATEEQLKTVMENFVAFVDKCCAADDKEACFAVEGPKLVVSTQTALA", "experiment": "fluorescence ELISA: BSA coated wells, FITC labeled FcγRIa serially diluted 4-fold [panel b]"}, "[2]": {"target": "Protein A-FITC (Staphylococcus aureus, UniProt P38507 37-477)", "experiment": "flow cytometry of spheroplasts, PMT 700V, TB with 0.5M trehalose, labeling with Protein A-FITC [panel a]"}, "[3]": {"target": "B1", "experiment": "flow cytometry of spheroplasts displaying the Fc, labelled with FcγRIa-FITC [panel b]"}, "[4]": {"target": "B1", "experiment": "flow cytometry of spheroplasts displaying the Fc clone, labelled with FcγRIa-FITC; the value is repeated on D00019 and D00020"}, "[5]": {"target": "B1", "experiment": "SPR (BIAcore 3000), FcγRIa immobilized on CM-5"}, "[6]": {"target": "T2, extracellular domain of aglycosylated FcγRIIIa purified from E. coli inclusion bodies, FITC-labeled (human, UniProt P08637 17-208)", "T2 construct": "extracellular domain; also called FcγRIIIa-FITC", "T2 sequence (P08637 17-208)": "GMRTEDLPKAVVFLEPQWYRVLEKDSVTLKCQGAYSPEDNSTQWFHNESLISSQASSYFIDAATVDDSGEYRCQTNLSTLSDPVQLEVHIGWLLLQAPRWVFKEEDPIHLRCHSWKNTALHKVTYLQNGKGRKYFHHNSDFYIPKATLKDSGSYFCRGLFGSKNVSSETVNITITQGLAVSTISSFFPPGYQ", "experiment": "flow cytometry of spheroplasts displaying the Fc, labelled with FcγRIIIa-FITC"}},
  "note": "Substitutions are numbered along the chain they refer to. In names and notes the source's numbering stands.",
  "data": [
    {"binder": "B1", "values": [
      {"measurement": "binding result", "setting": "[1]", "result": "no binding"}
    ]},
    {"binder": "B2", "values": [
      {"measurement": "binding result", "setting": "[2]", "result": "no binding"}
    ]},
    {"binder": "B3", "values": [
      {"measurement": "M (mean fluorescence intensity)", "setting": "[3]", "result": 307}
    ]},
    {"binder": "B4", "values": [
      {"measurement": "FACS mean value", "setting": "[4]", "result": 374}
    ]},
    {"binder": "B5", "values": [
      {"measurement": "FACS mean value", "setting": "[4]", "result": 464}
    ]},
    {"binder": "B6", "values": [
      {"measurement": "FACS mean value", "setting": "[4]", "result": 173}
    ]},
    {"binder": "B7", "values": [
      {"measurement": "M (mean fluorescence intensity)", "setting": "[3]", "result": 335}
    ]},
    {"binder": "B8", "values": [
      {"measurement": "FACS mean value", "setting": "[4]", "result": 140}
    ]},
    {"binder": "B9", "values": [
      {"measurement": "FACS mean value", "setting": "[4]", "result": 269}
    ]},
    {"binder": "B10", "values": [
      {"measurement": "Kd", "setting": "[5]", "result": 0.092, "unit": "µM"},
      {"measurement": "koff", "setting": "[5]", "result": 0.0023, "unit": "s⁻¹"},
      {"measurement": "kon", "setting": "[5]", "result": 25000, "unit": "M⁻¹ s⁻¹"},
      {"measurement": "M (mean fluorescence intensity)", "setting": "[3]", "result": 409}
    ]},
    {"binder": "B11", "values": [
      {"measurement": "FACS mean value", "setting": "[4]", "result": 370}
    ]},
    {"binder": "B12", "values": [
      {"measurement": "FACS mean value", "setting": "[4]", "result": 326}
    ]},
    {"binder": "B13", "values": [
      {"measurement": "M (mean fluorescence intensity)", "setting": "[3]", "result": 295}
    ]},
    {"binder": "B14", "values": [
      {"measurement": "FACS mean value", "setting": "[4]", "result": 138}
    ]},
    {"binder": "B15", "values": [
      {"measurement": "FACS mean value", "setting": "[4]", "result": 211}
    ]},
    {"binder": "B16", "values": [
      {"measurement": "M (mean fluorescence intensity)", "setting": "[6]", "result": 500}
    ]},
    {"binder": "B17", "values": [
      {"measurement": "M (mean fluorescence intensity)", "setting": "[6]", "result": 291}
    ]},
    {"binder": "B18", "values": [
      {"measurement": "M (mean fluorescence intensity)", "setting": "[6]", "result": 143}
    ]},
    {"binder": "B19", "values": [
      {"measurement": "M (mean fluorescence intensity)", "setting": "[6]", "result": 496}
    ]}
  ]
}
